Here are results for 94 variants from the supplement of paper PMC10567573.

B1: RAB40B (parent)
chain: YSLTTSSTHKRSSLRKVKLVRPPQ
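Note: lentivirally expressed fusions sorted by FACS into six bins by GFP to DsRed ratio, PSI derived from sequencing read proportions per bin multiplied by bin number.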

In this series the parent is B1. The series can be described thus: protein stability index of a GFP-peptide fusion (GPS, HEK-293T) (PSI 1-6); higher = more stable. As to conditions: c terminus: a fixed tail appended.
Regarding YSLTTSSTHKRSSLRKVELVRPPQ [K18E], the protein stability index is 3.43.

Consider YSLTTSSTHKRSSLYKVKLVRPPQ [R15Y], for which the protein stability index is 1.86.

Take YSLTTSSTHKRSSLIKVKLVRPPQ [R15I]: the protein stability index is 2.13.

With YSLTTSSTHKRSSLAKVKLVRPPQ [R15A], the protein stability index turned out to be 2.49.

As for YSLTTSSTHKRSSLPKVKLVRPPQ [R15P], the protein stability index amounted to 3.47.

Take YSLTTSSTHKRSSLVKVKLVRPPQ [R15V]: the protein stability index was determined as 2.48.

For the variant YSLTTSSTHKRSSLFKVKLVRPPQ [R15F], the protein stability index stood at 1.94.

Turning to YSLTTSSTHKRSSLLKVKLVRPPQ [R15L], the protein stability index turned out to be 2.44.

With YSLTTSSTHKRSSLKKVKLVRPPQ [R15K], the protein stability index worked out at 3.24.

Take YSLTTSSTHKRSSLGKVKLVRPPQ [R15G]: the protein stability index is 2.97.

For YSLTTSSTHKRSSLDKVKLVRPPQ [R15D], the protein stability index is 3.54.

In the case of YSLTTSSTHKRSSLWKVKLVRPPQ [R15W], the protein stability index is 2.12.

On to YSLTTSSTHKRSSLTKVKLVRPPQ [R15T], for which the protein stability index is 3.02.

Regarding YSLTTSSTHKRSSLSKVKLVRPPQ [R15S], the protein stability index was 2.95.

For YSLTTSSTHKRSSLNKVKLVRPPQ [R15N], the protein stability index came to 2.94.

As to YSLTTSSTHKRSSLMKVKLVRPPQ [R15M], the protein stability index was found to be 2.46.

As for YSLTTSSTHKRSSLCKVKLVRPPQ [R15C], the protein stability index came to 2.81.

Turning to YSLTTSSTHKRSSLHKVKLVRPPQ [R15H], the protein stability index was 2.51.

As for YSLTTSSTHKRSSLEKVKLVRPPQ [R15E], the protein stability index worked out at 3.25.

Consider YSLTTSSTHKRSSLQKVKLVRPPQ [R15Q], for which the protein stability index worked out at 3.35.

With YSLTTSSTHKRSSLRKVKLVRTPQ [P22T], the protein stability index was 3.32.

Regarding YSLTTSSTHKRSSLRKVKLVRVPQ [P22V], the protein stability index came to 2.48.

Turning to YSLTTSSTHKRSSLRKVKLVRCPQ [P22C], the protein stability index was 3.61.

For the variant YSLTTSSTHKRSSLRKVKLVRNPQ [P22N], the protein stability index worked out at 3.72.

On to YSLTTSSTHKRSSLRKVKLVRRPQ [P22R], for which the protein stability index was 3.

As for YSLTTSSTHKRSSLRKVKLVREPQ [P22E], the protein stability index was determined as 3.5.

Take YSLTTSSTHKRSSLRKVKLVRQPQ [P22Q]: the protein stability index came out at 3.39.

As for YSLTTSSTHKRSSLRKVKLVRKPQ [P22K], the protein stability index came out at 3.28.

Consider YSLTTSSTHKRSSLRKVKLVRAPQ [P22A], for which the protein stability index is 2.76.

On to YSLTTSSTHKRSSLRKVKLVRSPQ [P22S], for which the protein stability index is 3.13.

For YSLTTSSTHKRSSLRKVKLVRHPQ [P22H], the protein stability index turned out to be 2.49.

For YSLTTSSTHKRSSLRKVKLVRLPQ [P22L], the protein stability index came to 2.58.

Turning to YSLTTSSTHKRSSLRKVKLVRDPQ [P22D], the protein stability index is 3.39.

YSLTTSSTHKRSSLRKVKLVRMPQ [P22M]: the protein stability index was 2.76.

As for YSLTTSSTHKRSSLRKVKLVRIPQ [P22I], the protein stability index was 2.27.

As for YSLTTSSTHKRSSLRKVKLVRGPQ [P22G], the protein stability index was 2.44.

As for YSLTTSSTHKRSSLRKVKLVRFPQ [P22F], the protein stability index is 2.44.

In the case of YSLTTSSTHKRSSLRKEKLVRPPQ [V17E], the protein stability index amounted to 3.5.

YSLTTSSTHKRSSLRKRKLVRPPQ [V17R]: the protein stability index amounted to 4.01.

Turning to YSLTTSSTHKRSSLRKYKLVRPPQ [V17Y], the protein stability index worked out at 2.98.

Regarding YSLTTSSTHKRSSLRKCKLVRPPQ [V17C], the protein stability index worked out at 2.91.

Consider YSLTTSSTHKRSSLRKFKLVRPPQ [V17F], for which the protein stability index turned out to be 2.67.

Consider YSLTTSSTHKRSSLRKTKLVRPPQ [V17T], for which the protein stability index worked out at 3.09.

In the case of YSLTTSSTHKRSSLRKQKLVRPPQ [V17Q], the protein stability index was found to be 3.38.

YSLTTSSTHKRSSLRKMKLVRPPQ [V17M]: the protein stability index amounted to 2.75.

As to YSLTTSSTHKRSSLRKKKLVRPPQ [V17K], the protein stability index came out at 3.47.

With YSLTTSSTHKRSSLRKIKLVRPPQ [V17I], the protein stability index is 2.63.

Take YSLTTSSTHKRSSLRKGKLVRPPQ [V17G]: the protein stability index was determined as 3.12.

Regarding YSLTTSSTHKRSSLRKHKLVRPPQ [V17H], the protein stability index is 3.55.

As to YSLTTSSTHKRSSLRKNKLVRPPQ [V17N], the protein stability index is 3.39.

Take YSLTTSSTHKRSSLRKDKLVRPPQ [V17D]: the protein stability index turned out to be 3.33.

Regarding YSLTTSSTHKRSSLRKWKLVRPPQ [V17W], the protein stability index is 2.53.

For YSLTTSSTHKRSSLRKAKLVRPPQ [V17A], the protein stability index is 3.28.

For YSLTTSSTHKRSSLRKSKLVRPPQ [V17S], the protein stability index is 3.3.

For the variant YSLTTSSTHKRSSLRKPKLVRPPQ [V17P], the protein stability index worked out at 3.13.

Take YSLTTSSTHKRSSLRKLKLVRPPQ [V17L]: the protein stability index came to 2.77.

As to YSLTTSSTHKRSSLRKVKGVRPPQ [L19G], the protein stability index amounted to 3.7.

With YSLTTSSTHKRSSLRKVKMVRPPQ [L19M], the protein stability index was 3.13.

As for YSLTTSSTHKRSSLRKVKFVRPPQ [L19F], the protein stability index turned out to be 3.1.

As for YSLTTSSTHKRSSLRKVKTVRPPQ [L19T], the protein stability index was found to be 3.25.

In the case of YSLTTSSTHKRSSLRKVKVVRPPQ [L19V], the protein stability index was 3.19.

Take YSLTTSSTHKRSSLRKVKAVRPPQ [L19A]: the protein stability index came to 4.17.

Take YSLTTSSTHKRSSLRKVKEVRPPQ [L19E]: the protein stability index worked out at 3.04.

As for YSLTTSSTHKRSSLRKVKSVRPPQ [L19S], the protein stability index turned out to be 3.45.

In the case of YSLTTSSTHKRSSLRKVKKVRPPQ [L19K], the protein stability index was 4.09.

In the case of YSLTTSSTHKRSSLRKVKYVRPPQ [L19Y], the protein stability index was found to be 2.81.

With YSLTTSSTHKRSSLRKVKWVRPPQ [L19W], the protein stability index is 3.15.

As to YSLTTSSTHKRSSLRKVKDVRPPQ [L19D], the protein stability index turned out to be 3.71.

Consider YSLTTSSTHKRSSLRKVKNVRPPQ [L19N], for which the protein stability index stood at 3.39.

Turning to YSLTTSSTHKRSSLRKVKRVRPPQ [L19R], the protein stability index came to 3.18.

YSLTTSSTHKRSSLRKVKQVRPPQ [L19Q]: the protein stability index turned out to be 2.33.

Take YSLTTSSTHKRSSLRKVKCVRPPQ [L19C]: the protein stability index stood at 3.37.

With YSLTTSSTHKRSSLRKVKIVRPPQ [L19I], the protein stability index was found to be 2.9.

Take YSLTTSSTHKRSSLRKVKPVRPPQ [L19P]: the protein stability index was found to be 3.63.

YSLTTSSTHKRSSLRKVKHVRPPQ [L19H]: the protein stability index was found to be 3.33.

As for YSLTTSSTHKRSSVRKVKLVRPPQ [L14V], the protein stability index amounted to 3.25.

Take YSLTTSSTHKRSSQRKVKLVRPPQ [L14Q]: the protein stability index was 3.98.

For the variant YSLTTSSTHKRSSDRKVKLVRPPQ [L14D], the protein stability index was determined as 3.83.

For YSLTTSSTHKRSSWRKVKLVRPPQ [L14W], the protein stability index came to 2.38.

With YSLTTSSTHKRSSSRKVKLVRPPQ [L14S], the protein stability index amounted to 3.5.

For YSLTTSSTHKRSSRRKVKLVRPPQ [L14R], the protein stability index was determined as 3.69.

Take YSLTTSSTHKRSSERKVKLVRPPQ [L14E]: the protein stability index worked out at 3.82.

YSLTTSSTHKRSSTRKVKLVRPPQ [L14T]: the protein stability index was 3.87.

Consider YSLTTSSTHKRSSPRKVKLVRPPQ [L14P], for which the protein stability index came out at 3.86.

For the variant YSLTTSSTHKRSSARKVKLVRPPQ [L14A], the protein stability index was found to be 3.68.

For the variant YSLTTSSTHKRSSGRKVKLVRPPQ [L14G], the protein stability index was determined as 3.79.

For YSLTTSSTHKRSSNRKVKLVRPPQ [L14N], the protein stability index was determined as 3.77.

In the case of YSLTTSSTHKRSSIRKVKLVRPPQ [L14I], the protein stability index came out at 3.37.

With YSLTTSSTHKRSSKRKVKLVRPPQ [L14K], the protein stability index turned out to be 3.37.

Take YSLTTSSTHKRSSYRKVKLVRPPQ [L14Y]: the protein stability index turned out to be 3.06.

For YSLTTSSTHKRSSHRKVKLVRPPQ [L14H], the protein stability index amounted to 3.46.

Regarding YSLTTSSTHKRSSMRKVKLVRPPQ [L14M], the protein stability index worked out at 2.64.

On to YSLTTSSTHKRSSFRKVKLVRPPQ [L14F], for which the protein stability index is 2.62.

On to YSLTTSSTHKRSSCRKVKLVRPPQ [L14C], for which the protein stability index is 2.6.
